Like-named read-outs stand apart in the source and are kept apart here.
Columns and labels:
Test in all cases: SEC-MALS
[1] = biological target: λ Ea22(1–182) (bacteriophage λ)
[2] = biological target: λ Ea22(93–182) (bacteriophage λ)
[3] = biological target: λ Ea22(102–182) (bacteriophage λ)
[4] = biological target: λ Ea22(109–182) (bacteriophage λ)
[5] = biological target: φ24B Ea22(135–261) (bacteriophage φ24B)
[6] = biological target: φ24B Ea22(135–261) (bacteriophage φ24B); remark: listed apart in the source
[7] = biological target: φP27 Ea22(1–315) (bacteriophage φP27)

Substance: λ Ea22(1–182) (natural protein)
- stoichiometry N [1]: 4

Substance: λ Ea22(93–182) (domain or fragment)
- stoichiometry N [2]: 2

Substance: λ Ea22(102–182) (domain or fragment)
- stoichiometry N [3]: 2

Substance: λ Ea22(109–182) (domain or fragment)
- stoichiometry N [4]: 2

Substance: φ24B Ea22(135–261) (domain or fragment)
- stoichiometry N [5]: 4
- stoichiometry N [6]: 2

Substance: φP27 Ea22(1–315) (natural protein)
- stoichiometry N [7]: 4
